Data from patent US20060199250A1, “Method for generating a mutant protein which efficiently binds a target molecule” (priority 2005, published 2006).

Experiments:
[1] = Yeast two-hybrid ligand dose response assay (growth, OD600) of hERα LBD constructs toward DHB; assay type: cell-based; settings: in yeast; DHB vs E2
Protocol: Phenotypic screening of library variants was carried out based on a yeast two-hybrid system employing two constructs, the hERα LBD construct fused to the DNA binding domain of the yeast Gal4 transactivator, and the common mammalian transcriptional coactivator steroid receptor coactivator-1 (SRC-1) fused to the yeast Gal4 transcriptional activation domain. The hERα-SRC-1 interaction, which is elemental in the role of hERα as a transcriptional activator, is strengthened by the binding of agonist ligands to hERα. This system couples the strength of ligand-receptor interaction within host yeast cells to their growth on media lacking histidine and can be applied in either a selection or screening mode (Chen, et al. (2004) supra).
The plasmids from promising mutants based on this ligand response assay were isolated and re-transformed into fresh yeast cells, and the ligand response assay was carried out again to eliminate possible false-positives.
Plasmids, Strains, Reagents and Growth Media. […]
Ligand Dose Response Assay. […] These microtiter plates were incubated at 30° C. for 24 hours, after which cultures were mixed by pipetting, and OD600 readings were taken using a SPECTRAMAX® 340PC plate reader (Molecular Devices, Sunnyvale, Calif.).

[2] = Mammalian cell transactivation (luciferase) of full-length hERα constructs in HEC-1 cells toward DHB; assay type: cell-based, human
Protocol: Mammalian cell transactivation profiles for the wild-type hERα and the two best mutants, 4-S and 5-E, were carried out in estrogen receptor-negative human endometrial cancer (HEC-1) cells after cloning the hERα LBD from the chimeric yeast two-hybrid construct into the full-length estrogen receptor construct.
Mammalian Transfection and Luciferase Assay. Methods used for cell culture, transfection, and performance of luciferase assay are known in the art (Muthyala, et al. (2003) J. Med. Chem. 46:1589-1602).

B1: mutant 5-E: hERα mutant: Ala350Met, Leu346Ile, Met388Gln, Gly521Ser, Tyr526Asp, Phe461Leu, Val560Met (protein, UniProt P03372 1-595, looked up, variant A350M L346I M388Q G521S Y526D F461L V560M)
Estrogen receptor: MTMTLHTKASGMALLHQIQGNELEPLNRPQLKIPLERPLGEVYLDSSKPAVYNYPEGAAYEFNAAAAANAQVYGQTGLPYGPGSEAAAFGSNGLGGFPPLNSVSPSPLMLLHPPPQLSPFLQPHGQQVPYYLENEPSGYTVREAGPPAFYRPNSDNRRQGGRERLASTNDKGSMAMESAKETRYCAVCNDYASGYHYGVWSCEGCKAFFKRSIQGHNDYMCPATNQCTIDKNRRKSCQACRLRKCYEVGMMKGGIRKDRRGGRMLKHKRQRDDGEGRGEVGSAGDMRAANLWPSPLMIKRSKKNSLALSLTADQMVSALLDAEPPILYSEYDPTRPFSEASMMGLITNLMDRELVHMINWAKRVPGFVDLTLHDQVHLLECAWLEILQIGLVWRSMEHPGKLLFAPNLLLDRNQGKCVEGMVEIFDMLLATSSRFRMMNLQGEEFVCLKSIILLNSGVYTLLSSTLKSLEEKDHIHRVLDKITDTLIHLMAKAGLTLQQQHQRLAQLLLILSHIRHMSNKSMEHLDSMKCKNVVPLYDLLLEMLDAHRLHAPTSRGGASMEETDQSHLATAGSTSSHSLQKYYITGEAEGFPATV
- selectivity enhancement relative to the fourth round mutant (4-S) [1]: no selectivity enhancement
- Selectivity ([2]; HEC-1 cells, EC50 of E2 divided by EC50 of DHB): ≧2.6 × 10^4
- Fold Improvement ([2]; HEC-1 cells, selectivity DHB vs E2 relative to wild-type hERα): ≧1.4 × 10^8
- selectivity enhancement relative to the fourth round mutant (4-S) ([2]; in mammalian cells, DHB vs E2): no selectivity enhancement
